The series concerns the molecule itself. In words: cross-linking.

B1: hIRE1α(CD) (residues 469–977) (domain or fragment)
chain: HQQQQLQHQQFQKELEKIQLLQQQQQQLPFHPPGDTAQDGELLDTSGPYSESSGTSSPSTSPRASNHSLCSGSSASKAGSSPSLEQDDGDEETSVVIVGKISFCPKDVLGHGAEGTIVYRGMFDNRDVAVKRILPECFSFADREVQLLRESDEHPNVIRYFCTEKDRQFQYIAIELCAATLQEYVEQKDFAHLGLEPITLLQQTTSGLAHLHSLNIVHRDLKPHNILISMPNAHGKIKAMISDFGLCKKLAVGRHSFSRRSGVPGTEGWIAPEMLSEDCKENPTYTVDIFSAGCVFYYVISEGSHPFGKSLQRQANILLGACSLDCLHPEKHEDVIARELIEKMIAMDPQKRPSAKHVLKHPFFWSLEKQLQFFQDVSDRIEKESLDGPIVKQLERGGRAVVKMDWRENITVPLQTDLRKFRTYKGGSVRDLLRAMRNKKHHYRELPAEVRETLGSLPDDFVCYFTSRFPHLLAHTYRAMELCSHERLFQPYYFHEPPEPQPPVTPDAL
As for B1, the binding result was “binds”.

These data come from publication PMC12337650 (iScience, 2025).
